# Measured values published in the supplement of paper PMC10065799, “High-throughput profiling of sequence recognition by tyrosine kinases and SH2 domains using bacterial peptide display” (eLife, 2023).
# Experiments:
# MERTK = MERTK (UniProt Q12866); assay: phosphorylation enrichment, bacterial display (enrichment ratio); higher = better substrate or ligand; peptides without Tyr show the background
# Fer (mouse) = assay: as above
# Jak2 = Jak2 (UniProt O60674); assay: as above
# c-Abl (mouse) = assay: as above
# Hck = Hck (UniProt P08631); assay: as above
# EPHB2 = EPHB2 (UniProt P29323); assay: as above
# AncSZ = assay: as above
# Fyn = Fyn (UniProt P06241); assay: as above
# FGFR1 = FGFR1 (UniProt P11362); assay: as above
# EPHB1 = EPHB1 (UniProt P54762); assay: as above
# Fes = Fes (UniProt P07332); assay: as above
# FGFR3 = FGFR3 (UniProt P22607); assay: as above
# c-Src = assay: as above
# Grb2 SH2 = Grb2 SH2 (UniProt P62993); assay: SH2 binding enrichment of the phosphorylated peptide, bacterial display (enrichment ratio); higher = better substrate or ligand; peptides without Tyr show the background
# SHP2-C SH2 = assay: as above
# c-Src SH2 = assay: as above
# 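Wherever SH2 binding enrichment of the phosphorylated peptide, bacterial display is given: peptide library displayed on the E. coli surface as eCPX fusions, selected cells deep-sequenced, score is each peptide's frequency after selection divided by its frequency in the input.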
# 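Wherever phosphorylation enrichment, bacterial display is given: 11-residue human phosphosite peptides and single-mutation variants displayed on the E. coli surface, counted by deep sequencing, each peptide's frequency after selection divided by its frequency in the unselected input library; frequency after pTyr selection over input frequency; kinase dosed for 20-30% of maximal phosphorylation in three min.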
# Sequence of Fes (P07332 whole entry, looked up): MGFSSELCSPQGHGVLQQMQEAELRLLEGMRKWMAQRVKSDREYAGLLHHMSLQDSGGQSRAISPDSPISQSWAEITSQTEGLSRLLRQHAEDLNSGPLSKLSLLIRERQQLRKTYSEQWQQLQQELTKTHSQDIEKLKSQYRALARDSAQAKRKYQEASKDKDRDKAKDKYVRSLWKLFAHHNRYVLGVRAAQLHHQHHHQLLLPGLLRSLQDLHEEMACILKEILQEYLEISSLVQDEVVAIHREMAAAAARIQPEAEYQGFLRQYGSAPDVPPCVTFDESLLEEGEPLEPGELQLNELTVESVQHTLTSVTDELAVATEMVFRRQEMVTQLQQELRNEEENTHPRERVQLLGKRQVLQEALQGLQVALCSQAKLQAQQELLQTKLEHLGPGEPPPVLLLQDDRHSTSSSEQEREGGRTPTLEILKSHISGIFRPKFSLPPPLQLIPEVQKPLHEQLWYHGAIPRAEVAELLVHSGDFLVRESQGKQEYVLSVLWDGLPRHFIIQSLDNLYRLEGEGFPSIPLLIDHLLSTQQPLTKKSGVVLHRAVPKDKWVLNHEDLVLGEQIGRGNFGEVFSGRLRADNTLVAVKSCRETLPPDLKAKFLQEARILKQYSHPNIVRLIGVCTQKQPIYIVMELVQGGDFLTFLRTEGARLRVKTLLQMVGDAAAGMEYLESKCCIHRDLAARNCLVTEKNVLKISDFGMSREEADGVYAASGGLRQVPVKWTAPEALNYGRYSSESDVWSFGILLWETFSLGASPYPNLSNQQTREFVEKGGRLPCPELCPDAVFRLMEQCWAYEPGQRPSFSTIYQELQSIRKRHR
# Sequence of MERTK (Q12866 whole entry, looked up): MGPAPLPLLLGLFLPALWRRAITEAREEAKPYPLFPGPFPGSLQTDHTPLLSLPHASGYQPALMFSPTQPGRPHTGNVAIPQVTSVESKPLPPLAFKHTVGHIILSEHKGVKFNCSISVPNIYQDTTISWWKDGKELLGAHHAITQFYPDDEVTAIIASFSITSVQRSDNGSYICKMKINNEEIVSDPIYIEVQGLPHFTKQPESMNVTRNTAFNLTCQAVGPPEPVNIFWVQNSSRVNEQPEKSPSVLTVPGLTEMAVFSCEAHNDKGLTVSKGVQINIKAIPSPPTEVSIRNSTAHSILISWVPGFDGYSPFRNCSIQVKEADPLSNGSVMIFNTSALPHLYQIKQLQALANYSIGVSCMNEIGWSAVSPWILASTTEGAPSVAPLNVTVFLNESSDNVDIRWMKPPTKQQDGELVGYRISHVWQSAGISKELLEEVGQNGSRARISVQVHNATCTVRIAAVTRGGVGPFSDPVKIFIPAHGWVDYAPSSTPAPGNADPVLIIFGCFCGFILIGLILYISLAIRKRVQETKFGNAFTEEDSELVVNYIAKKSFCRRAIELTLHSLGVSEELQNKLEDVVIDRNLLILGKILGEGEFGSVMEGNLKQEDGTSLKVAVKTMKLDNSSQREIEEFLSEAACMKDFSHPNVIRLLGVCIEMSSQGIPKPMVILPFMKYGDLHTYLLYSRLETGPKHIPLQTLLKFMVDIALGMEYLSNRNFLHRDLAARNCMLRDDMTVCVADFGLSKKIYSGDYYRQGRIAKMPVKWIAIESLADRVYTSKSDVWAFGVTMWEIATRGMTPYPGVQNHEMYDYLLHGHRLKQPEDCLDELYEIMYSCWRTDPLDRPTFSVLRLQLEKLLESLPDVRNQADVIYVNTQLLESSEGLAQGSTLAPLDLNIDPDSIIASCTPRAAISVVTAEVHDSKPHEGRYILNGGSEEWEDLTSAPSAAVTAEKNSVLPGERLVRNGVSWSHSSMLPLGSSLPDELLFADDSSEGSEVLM
# Sequence of Fyn (P06241 whole entry, looked up): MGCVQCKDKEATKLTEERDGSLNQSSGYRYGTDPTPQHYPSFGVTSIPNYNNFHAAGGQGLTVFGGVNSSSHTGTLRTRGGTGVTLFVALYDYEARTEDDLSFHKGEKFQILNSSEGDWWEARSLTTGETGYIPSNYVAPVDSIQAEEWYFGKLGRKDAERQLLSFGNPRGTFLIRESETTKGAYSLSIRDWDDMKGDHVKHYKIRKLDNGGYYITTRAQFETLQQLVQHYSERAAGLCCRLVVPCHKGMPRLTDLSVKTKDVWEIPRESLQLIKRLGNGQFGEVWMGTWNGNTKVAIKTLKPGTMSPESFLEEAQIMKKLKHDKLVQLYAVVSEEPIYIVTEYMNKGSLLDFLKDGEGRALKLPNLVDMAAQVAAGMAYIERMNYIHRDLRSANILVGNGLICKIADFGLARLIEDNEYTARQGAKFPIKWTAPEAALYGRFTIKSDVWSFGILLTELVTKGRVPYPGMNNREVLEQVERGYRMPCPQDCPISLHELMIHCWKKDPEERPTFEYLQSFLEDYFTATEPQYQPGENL
# Sequence of FGFR1 (P11362 whole entry, looked up): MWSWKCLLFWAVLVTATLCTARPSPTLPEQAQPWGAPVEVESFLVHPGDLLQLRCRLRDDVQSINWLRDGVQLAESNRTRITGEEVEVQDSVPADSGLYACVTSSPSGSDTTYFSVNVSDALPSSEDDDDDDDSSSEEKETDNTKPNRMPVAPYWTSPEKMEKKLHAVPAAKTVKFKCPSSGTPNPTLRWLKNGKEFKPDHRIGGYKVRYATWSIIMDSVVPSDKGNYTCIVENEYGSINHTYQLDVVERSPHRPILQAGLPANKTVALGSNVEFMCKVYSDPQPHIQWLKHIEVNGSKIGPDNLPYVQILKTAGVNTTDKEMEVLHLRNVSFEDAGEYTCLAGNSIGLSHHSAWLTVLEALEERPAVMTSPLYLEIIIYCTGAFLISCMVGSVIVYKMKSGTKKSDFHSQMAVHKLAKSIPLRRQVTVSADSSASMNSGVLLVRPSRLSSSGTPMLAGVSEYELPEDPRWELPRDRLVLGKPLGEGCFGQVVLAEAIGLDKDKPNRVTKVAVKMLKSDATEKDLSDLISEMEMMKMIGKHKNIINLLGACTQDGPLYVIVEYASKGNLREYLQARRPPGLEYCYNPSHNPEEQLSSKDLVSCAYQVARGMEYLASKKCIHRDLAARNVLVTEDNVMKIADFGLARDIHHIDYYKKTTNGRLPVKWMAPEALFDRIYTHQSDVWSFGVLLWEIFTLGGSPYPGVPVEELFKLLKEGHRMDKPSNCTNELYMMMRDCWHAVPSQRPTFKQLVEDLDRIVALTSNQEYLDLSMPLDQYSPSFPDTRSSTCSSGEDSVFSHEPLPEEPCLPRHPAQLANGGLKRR
# Sequence of Hck (P08631 whole entry, looked up): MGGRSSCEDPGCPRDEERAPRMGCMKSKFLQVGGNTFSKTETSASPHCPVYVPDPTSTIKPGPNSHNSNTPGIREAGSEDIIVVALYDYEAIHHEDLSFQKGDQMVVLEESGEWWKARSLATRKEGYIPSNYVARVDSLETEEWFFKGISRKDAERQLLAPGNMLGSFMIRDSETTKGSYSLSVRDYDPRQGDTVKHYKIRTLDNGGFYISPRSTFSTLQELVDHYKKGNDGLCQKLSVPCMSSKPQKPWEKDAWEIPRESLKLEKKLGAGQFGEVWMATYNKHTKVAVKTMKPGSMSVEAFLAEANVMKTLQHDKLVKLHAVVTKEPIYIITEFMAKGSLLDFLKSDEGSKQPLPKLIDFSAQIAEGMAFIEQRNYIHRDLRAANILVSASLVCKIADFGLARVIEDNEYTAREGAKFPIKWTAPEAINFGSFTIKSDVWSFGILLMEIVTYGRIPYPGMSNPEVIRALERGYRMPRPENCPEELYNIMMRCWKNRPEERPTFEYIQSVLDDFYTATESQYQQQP
# Sequence of Jak2 (O60674 whole entry, looked up): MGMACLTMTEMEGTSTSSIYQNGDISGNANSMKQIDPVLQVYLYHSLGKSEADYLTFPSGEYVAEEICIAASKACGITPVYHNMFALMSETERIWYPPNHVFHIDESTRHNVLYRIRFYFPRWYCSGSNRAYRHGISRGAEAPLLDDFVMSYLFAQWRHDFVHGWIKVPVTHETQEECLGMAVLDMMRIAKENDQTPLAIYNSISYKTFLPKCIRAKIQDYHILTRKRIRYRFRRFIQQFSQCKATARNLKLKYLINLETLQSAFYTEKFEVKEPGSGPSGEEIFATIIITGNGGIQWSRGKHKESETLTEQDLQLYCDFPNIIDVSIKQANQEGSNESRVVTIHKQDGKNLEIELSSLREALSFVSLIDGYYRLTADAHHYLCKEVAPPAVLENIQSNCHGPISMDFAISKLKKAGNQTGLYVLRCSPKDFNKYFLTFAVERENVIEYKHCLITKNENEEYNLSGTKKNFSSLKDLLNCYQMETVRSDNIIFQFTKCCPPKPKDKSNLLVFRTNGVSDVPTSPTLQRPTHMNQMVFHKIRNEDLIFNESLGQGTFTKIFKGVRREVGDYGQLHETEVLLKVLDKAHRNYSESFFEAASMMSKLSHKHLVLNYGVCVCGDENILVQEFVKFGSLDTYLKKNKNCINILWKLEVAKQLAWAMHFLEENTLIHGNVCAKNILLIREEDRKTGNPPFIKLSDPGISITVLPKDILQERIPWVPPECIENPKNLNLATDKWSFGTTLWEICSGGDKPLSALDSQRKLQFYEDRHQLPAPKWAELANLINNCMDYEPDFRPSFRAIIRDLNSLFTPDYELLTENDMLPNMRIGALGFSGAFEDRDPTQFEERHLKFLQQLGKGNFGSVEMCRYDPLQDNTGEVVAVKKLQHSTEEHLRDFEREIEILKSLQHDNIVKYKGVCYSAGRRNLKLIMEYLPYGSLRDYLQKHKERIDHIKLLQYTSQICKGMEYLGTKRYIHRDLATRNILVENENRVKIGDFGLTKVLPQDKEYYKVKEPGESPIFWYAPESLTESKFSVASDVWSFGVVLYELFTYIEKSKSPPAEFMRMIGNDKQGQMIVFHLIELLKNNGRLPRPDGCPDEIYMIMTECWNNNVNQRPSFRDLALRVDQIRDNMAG
Sequence,SH2 binding enrichment (Grb2 SH2),SH2 binding enrichment (SHP2-C SH2),SH2 binding enrichment (c-Src SH2),phosphorylation enrichment (MERTK),phosphorylation enrichment (Fer (mouse)),phosphorylation enrichment (Jak2),phosphorylation enrichment (c-Abl (mouse)),phosphorylation enrichment (Hck),phosphorylation enrichment (EPHB2),phosphorylation enrichment (AncSZ),phosphorylation enrichment (Fyn),phosphorylation enrichment (FGFR1),phosphorylation enrichment (EPHB1),phosphorylation enrichment (Fes),phosphorylation enrichment (FGFR3),phosphorylation enrichment (c-Src)
KPLMPYMRYSR [SMARCE1_Y73],0.78,0.609,0.402,0.467,0.384,0.626,0.635,0.435,0.449,0.787,0.432,0.449,0.353,0.761,0.431,0.52
KPMDTYFDSTR [DYNC2H1_Y2230_YF],0.86,0.696,0.472,0.489,0.526,0.758,0.615,0.484,0.517,0.79,0.452,0.778,0.666,0.804,0.651,0.512
KPPFSYNALIM [FOXG1_Y186],0.726,0.497,0.403,0.525,0.461,0.632,0.57,0.472,0.488,0.641,0.438,0.455,0.424,0.724,0.628,0.512
KPSLKYVTYGN [GALNTL5_Y404_G401S],1.09,0.985,0.836,0.348,0.417,0.443,0.408,0.462,0.349,0.577,0.379,0.4,0.334,0.65,0.516,0.387
KRAIGYFSATS [FAM120A_Y327_YF],1.02,0.851,0.553,0.362,0.327,0.612,0.362,0.492,0.426,0.543,0.382,0.381,0.345,0.612,0.467,0.364
KSLSQYLEMDK [CAGE1_Y438_V435L],0.709,0.837,1.4,0.446,0.348,0.797,0.56,0.415,0.483,0.793,0.445,0.545,0.382,0.836,0.487,0.4
KTGDYYDLYGG [PTPN11_Y63_N58K],0.858,0.665,0.916,3.04,0.829,2.26,0.813,5.07,7.72,1.86,4.48,16.8,9.65,1.09,13.8,3.86
KTVQDYLKKFF [MMP8_Y36_E38K_YF],0.649,0.56,0.42,0.494,0.563,0.795,0.66,0.494,0.371,1.07,0.575,0.523,0.473,1.05,0.545,0.488
KVKEQYQDVPM [PKP2_Y659],0.801,0.776,0.728,0.401,0.36,0.632,0.603,0.48,0.431,0.667,0.446,0.509,0.455,0.717,0.48,0.395
KYRREYILSLE [GPC3_Y299_W296R],0.774,0.606,0.374,0.576,0.534,0.628,0.511,0.49,0.465,0.754,0.468,0.427,0.364,0.698,0.491,0.613
LARDIYKNDYY [ROS1_Y2110],1.02,0.722,0.881,0.426,0.369,0.752,0.462,0.712,0.782,1.1,0.854,3.15,0.953,0.828,2.19,1.42
LASLIYNFILF [AQP6_Y231_V234I],0.993,1.04,1.02,14.7,19,2.98,5.49,11.5,1.28,2.67,13.3,4.45,2.51,3.72,4.49,12.7
LASSEYPVQRR [GALK1_Y236_R239Q],1.16,0.794,0.256,0.554,0.981,1.06,1.03,0.761,0.308,0.732,1.07,0.58,0.381,1.32,1.17,0.707
LDAGEYCVPRG [BEX1_Y43],0.844,0.715,0.453,0.866,1.47,1.05,3.62,1.57,3.87,8.78,1.26,1.32,3.38,2.01,1.73,0.816
LDYNEYFRYLN [HPRT1_Y198_D201Y],2.06,1.18,0.765,0.573,0.635,7.21,1.81,1.41,1.39,1.79,1.45,3.33,0.858,1.23,2.1,2.04
LEITWYPFDME [RIPOR2_Y316_V320M],0.951,1.04,0.591,0.608,0.751,2.05,1.32,0.66,0.792,1.85,0.594,0.698,1.21,2.31,1.48,0.554
LEPHIYAVADV [MYO9A_Y216],0.979,0.789,3.29,1.28,1.64,0.741,14.1,1.6,1.2,0.926,1.74,0.469,0.822,1.02,0.616,2.11
LEVETYRRLLD [KRT12_Y429_I426V],0.843,0.64,0.467,0.344,0.439,0.749,0.551,0.511,0.407,0.676,0.421,0.396,0.491,0.797,0.625,0.349
LFDHIYTTQSD [RET_Y928],0.925,0.796,0.583,1.96,6.22,1.81,0.821,5.93,2,2.46,7.45,2.9,1.28,3.19,3.56,4.92
LGLTVYADCLA [ABCA4_Y2063],0.918,0.553,0.564,0.369,0.584,0.992,0.815,0.515,0.657,1.14,0.589,0.618,0.686,1.39,0.78,0.473
LGSWTYPKTVS [ROS1_Y144_T145P],0.813,0.805,0.496,0.664,0.453,0.734,0.732,0.577,0.432,0.85,0.741,0.842,0.402,1.12,0.604,0.415

# Further lines, with some results ahead:
SH2 binding enrichment (Grb2 SH2),SH2 binding enrichment (SHP2-C SH2),SH2 binding enrichment (c-Src SH2),Sequence,phosphorylation enrichment (MERTK),phosphorylation enrichment (Fer (mouse)),phosphorylation enrichment (Jak2),phosphorylation enrichment (c-Abl (mouse)),phosphorylation enrichment (Hck),phosphorylation enrichment (EPHB2),phosphorylation enrichment (AncSZ),phosphorylation enrichment (Fyn),phosphorylation enrichment (FGFR1),phosphorylation enrichment (EPHB1),phosphorylation enrichment (Fes),phosphorylation enrichment (FGFR3),phosphorylation enrichment (c-Src)
1.14,0.673,0.585,KQQEIYQELTQ [CD209_Y239],4.81,3.56,0.917,1.77,6.43,3.03,1.35,6.33,3.1,5.8,1.07,2.3,5.59
1.61,1.36,1.1,KRLKDYLMVLQ [USP25_Y425_T427M],0.428,0.507,0.595,0.5,0.515,0.545,0.661,0.456,1.5,0.503,0.791,0.93,0.444
0.992,0.797,0.556,KSIDEYLKLVG [RASAL2_Y381_E379D],0.34,0.374,0.761,0.449,0.489,0.596,0.843,0.406,0.465,0.378,0.73,0.445,0.37
0.766,0.802,2.03,KSIQLYDTPFE [SHB_Y297_G293S_YF],6.02,3.47,0.9,1.29,2.17,18,1.18,1.01,0.518,12.7,1,0.683,0.784
0.757,0.479,0.475,KSNSDYVDVLP [SH2D1B_Y127_N122K],0.43,0.583,0.705,0.531,0.477,1.45,1.11,0.419,2.42,3.1,0.887,1.68,0.449
0.703,0.947,0.477,KSRQIYDAFIM [GRK3_Y109_R104K_YF],11.7,14.4,0.799,16.5,10.4,6.65,0.764,13,0.576,4.7,0.941,0.6,9.72
1.5,1.24,1.46,KTTILHKLKLG [ARF1_Y35_Y35H],0.35,0.435,0.548,0.591,0.39,0.509,0.584,0.333,0.439,0.4,0.739,0.518,0.326
1.3,1.28,1.12,KVALPYKPFFF [POLE_Y100_YF],0.41,0.455,0.674,0.656,0.557,0.715,0.743,0.44,0.375,0.42,0.855,0.537,0.547
4.36,0.752,1.07,LAARYYNWVCF [FLT4_Y1231_S1235C],1.04,1.39,1.11,0.977,0.588,0.615,1.37,0.777,1.96,0.899,1.51,1.94,0.512
0.904,0.465,0.517,LEISPYMLSGP [LRRK2_Y1718_R1723P],1.97,2.63,1.35,0.866,1.1,0.633,1.53,3.67,0.921,0.753,1.16,0.983,3.58
0.755,0.576,0.504,LEQDEYALRSH [HADHB_Y244],0.724,0.669,2.54,1.9,1.08,1.69,1.98,0.793,0.891,1.01,1.75,1.08,0.96
0.823,0.818,5.09,LGIDRYHAIVY [NPSR1_Y147_S143G],0.446,0.408,0.775,0.437,0.683,0.523,0.717,0.442,2.82,0.443,0.814,1.84,0.621
